“And” between values parts separate entries of the source, which are not always exact repeats. Equal values may be shown once.

For assay [1], the target named is 13C/15N labeled recombinant human α-synuclein (human, UniProt P37840 1-140). In words: NMR 2D HSQC-TROSY, 1:0.5 α-synuclein:Fab; cutoff for epitope residues was attenuation above 50. As for the experimental part:
(§1) NMR was used to identify the binding epitope of anti-α-synuclein monoclonal antibody 13F3 and of anti-α-synuclein monoclonal antibody 1F7 as follows. NMR samples were prepared by adding a solution of ¹³C/¹⁵N labeled recombinant human α-synuclein in PBS […] at a concentration of 1 mg/ml (71 μM) purchased from Giotto Biotech (Sesto Fiorentino (FI), Italy) to a volume of 180 μl into 3 mm NMR tubes. Complex formation of the antibody bound form of α-synuclein was achieved by addition of an 18 mg/ml (120 μM) solution of antibody 13F3 and 17.8 mg/ml (118 μM) of antibody 1F7 in PBS (pH 7.2) in aliquots of 9 μl to the NMR sample. 2D HSQC-TROSY spectra were recorded at increasing concentration of Fab and the proton-amide cross peak intensity monitored in CCPN. (See Vranken et al (2005) Proteins 59:687-696.) All spectra were recorded at calibrated 300 K on a Bruker 600 MHz spectrometer using a 5 mm TXI cryo-probe. The final molar ratio used for data analysis of 1:0.5 α-synuclein:Fab. All data was processed using Topspin 3.1 (Bruker Karlsruhe, Germany) and visualized and analyzed using CCPN. Samples of ¹³C/¹⁵N labeled α-synuclein were measured in PBS (pH 7.2) buffer at 1 mg/ml corresponding to a concentration of 71 μM. […] Signal intensities were evaluated in CCPN. The signal errors were extrapolated in CCPN based on the signal to noise of the recorded data. […]

The target of assay [2] is T1, synthetic peptide corresponding to amino acid residues 105-123 in human α-synuclein (human).
T1 construct: also called unlabeled peptide
T1 peptide: EGAPQEGILEDMPVDPDNE
The experiment in a line: NMR competition, unlabeled peptide added to the Fab-α-synuclein complex. As for the experimental part:
as §1

In assay [3] the target is T2, recombinant human α-synuclein (human, UniProt P37840 1-140). In words: SPR Biacore T200, antibody capture format, steady-state analysis (text summary of Table 2). As to the method:
(§2) Monovalent affinities of anti-α-synuclein antibodies 13F3 and 1F7 for human α-synuclein were assessed using Surface Plasmon Resonance in a Biacore T200 instrument. These experiments utilized an antibody capture format where the test antibody was immobilized by binding the test antibody to a chip pre-coated with a murine IgG capture reagent and subsequently allowed to bind α-synuclein protein in solution.
(§3) A murine IgG capture chip was prepared using the GE murine IgG capture kit according to the manufacturer's instructions. Briefly, a Series S CM5 sensor chip was activated with a mixture of EDC/NHS before exposure to a solution of capture antibody in a 10 mM sodium acetate (pH 5.0) buffer. Remaining covalent attachment sites were blocked with ethanolamine.
(§4) To assess binding, anti-α-synuclein monoclonal antibody 13F3 and anti-α-synuclein monoclonal antibody 1F7 were captured using a 1 μg/ml solution in running buffer (1×HBSP; 10 mM HEPES, pH 7.4, 150 mM NaCl, 0.05% Tween20) at a flow rate of 10 μl/min. Binding of human α-synuclein in solution was monitored at six different concentrations (a three-fold dilution series spanning concentrations from single-digit nanomolar to greater than 1 μM) and one replicate concentration, at a flow rate of 30 μl/min. […]

Assay [4] addresses T2, recombinant human α-synuclein. In words: SPR Biacore T200, antibody captured on murine IgG capture chip, α-synuclein in solution, steady-state analysis, 25 C, Expt A. As for the experimental part: as §2, §3, §4
(SPR reads the build-up and loss of mass on a sensor chip optically.)

The target is the same in assay [5]. The experiment in a line: SPR Biacore T200, antibody captured on murine IgG capture chip, α-synuclein in solution, steady-state analysis, 25 C, Expt B. As for the experimental part:
as §2, §3, §4

Assay [6] deals with T3, peptide corresponding to amino acid residues 37-51 of human α-synuclein (human).
T3 construct: One of a series of 15-mer peptides spanning the length of human α-synuclein; also called 15-mer peptide
T3 peptide: VLYVGSKTKEGVVHG
In words: peptide mapping with a series of 15-mer peptides.

B1: anti-α-synuclein monoclonal antibody 13F3 Fab (Fab, V domains shown)
VH: QVQLQQSGAELVKPGASVKMSCKASGYTFTSYWITWVKKRPGQGLEWIGDISPGSGSTHYNEKFKSKATLTVDTSSSTAYIQLFSLTSEDSAVYYCAIAQTTFAYWGQGTLVTVSA
VL: DVLMTQTPLSLPVSLGDQASISCRSSQSIVHSNGNTYLEWYLQKPGQSPKLLIYKVSNRFSGVPDRFSGSGSGTDFTLKISRVEAEDLGVYYCFQGSHVPPTFGGGTRLEIK
notes: also called 13F3 Fab fragment
With B1, in assay [1], the “NMR signal attenuation at isoleucine 112” value was 1.79 fold. In assay [2], the binding result is “binds”.

B2: anti-α-synuclein monoclonal antibody 13F3 (mIgG2a) (antibody, V domains shown)
VH: QVQLQQSGAELVKPGASVKMSCKASGYTFTSYWITWVKKRPGQGLEWIGDISPGSGSTHYNEKFKSKATLTVDTSSSTAYIQLFSLTSEDSAVYYCAIAQTTFAYWGQGTLVTVSA
VL: DVLMTQTPLSLPVSLGDQASISCRSSQSIVHSNGNTYLEWYLQKPGQSPKLLIYKVSNRFSGVPDRFSGSGSGTDFTLKISRVEAEDLGVYYCFQGSHVPPTFGGGTRLEIK
notes: Mouse monoclonal, mIgG2a, expressed recombinantly in 293 cells
With B2, the Kd (commonly the constant that tells how readily two partners part at equilibrium) in assay [3] was 450 nM and 470 nM; in assay [4], 410 nM and 490 nM; in assay [5], 460 nM.

B3: anti-α-synuclein monoclonal antibody 1F7 (mIgG2a) (antibody, V domains shown)
VH: EVQLQQSGAELVKPGASVKLSCTASGFNIKDYYMDWVKQRTEQGLEWIARIDPEDGETKYAPKFQGKATITADTSSNTAYLQLSSLTSEDTAVYYCRVFDYWGQGTTLTVSS
VL: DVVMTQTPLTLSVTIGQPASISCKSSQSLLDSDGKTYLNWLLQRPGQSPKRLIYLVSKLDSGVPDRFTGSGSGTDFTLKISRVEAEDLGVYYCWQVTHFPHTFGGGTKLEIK
notes: as for B2
Take B3: the Kd was 180 nM in assay [3], 130 nM in assay [4] and 160 nM in assay [5]. Further, the binding result in assay [6] is “binds”.
